Measured values reported in article PMC11446014, “Human IL-22 receptor-targeted small protein antagonist suppress murine DSS-induced colitis” (Cell Communication and Signaling : CCS, 2024).
Values belong to the binder of their own block, whether it stands above or below them.

Key:
Conditions in all cases: both partners purified
[1] = target: T1, recombinant human IL-22R1 (rhIL-22 Rα1) (human, UniProt Q8N6P7 16-228); test: ELISA; receptor (IL-22R1 or IL-22R1-IgG Fc) coated on MaxiSorp plate; serially diluted IL-22 (Fc chimera or His tag); detection by mouse anti-human IgG (Fc)-HRP or anti-His monoclonal antibody-HRP; BSA wells as control
T1 construct: recombinant human IL-22 receptor alpha (rhIL-22 Rα1); also called commercial IL-22R1; source: bought: R&D Systems
T1 sequence (looked up): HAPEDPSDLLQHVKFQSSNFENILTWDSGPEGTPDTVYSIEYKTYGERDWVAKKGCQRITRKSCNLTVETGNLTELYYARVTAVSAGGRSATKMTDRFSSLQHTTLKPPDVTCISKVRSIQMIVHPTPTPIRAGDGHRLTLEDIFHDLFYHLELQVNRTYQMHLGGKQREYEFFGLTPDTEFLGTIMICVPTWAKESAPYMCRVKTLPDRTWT

[2] = target: T2, recombinant human IL-22R1 (rhIL-22 Rα1) (human, UniProt Q8N6P7 16-228); test: ELISA; competition: human IL-22R1 coated (1 µg/ml) on MaxiSorp; purified ABD-derived variants serially diluted in PBS-T with 1% BSA with 1 nM IL-22 Fc chimera; IL-22-Fc detected by anti-human IgG (Fc) HRP
T2 construct: human interleukin-22 receptor alpha (IL-22R1), recombinant soluble protein; Probably the extracellular part; also called IL-22 receptor alpha; commercial IL-22R1; source: bought: R&D Systems
T2 sequence (looked up): T1 sequence (looked up)

[3] = target: T2, recombinant human IL-22R1 (rhIL-22 Rα1); test: ELISA; IL-22 on IL-22R1 coated on a MaxiSorp 96-well plate (Fig. S1)

binding result [1]: binds
B1: recombinant human IL-22 protein, Fc Chimera (Fc fusion, UniProt Q9GZX6 34-179, looked up)
chain: APISSHCRLDKSNFQQPYITNRTFMLAKEASLADNNTDVRLIGEKLFHGVSMSERCYLMKQVLNFTLEEVLFPQSDRFQPYMQEVVPFLARLSNRLSTCHIEGDDLHIQRNVQKLKDTVKKLGESGEIKAIGELDLLFMSLRNACI
notes: human interleukin-22 fused to human IgG Fc; also called IL-22-IgG Fc cytokine; IL-22 (Fc chimera); source: bought: Abcam

binding result [2]: binds
B2: recombinant human IL-22 protein, Fc Chimera (Fc fusion, UniProt Q9GZX6 34-179, looked up)
chain: B1 chain
notes: human interleukin-22; also called IL-22-Fc; IL-22 cytokine; source: bought: Abcam

binding result [3]: binds
B3: human IL-22 (ligand, UniProt Q9GZX6 34-179, looked up)
chain: B1 chain
notes: human interleukin-22; it may be m16 or m17; also called hIL-22; IL-22 cytokine; source: bought: Abcam (cell assays)
